These results are taken from patent publication US20170158755A1 (PROTHENA BIOSCIENCES, published 2017).

One assay addresses T1, mouse His-laminin-α4 (mouse, UniProt P97927 826-1816, limits assumed).
T1 construct: Bought His-tagged recombinant protein; also called Murine LAMA4; recombinant mouse LAMA4-His
T1 sequence (looked up): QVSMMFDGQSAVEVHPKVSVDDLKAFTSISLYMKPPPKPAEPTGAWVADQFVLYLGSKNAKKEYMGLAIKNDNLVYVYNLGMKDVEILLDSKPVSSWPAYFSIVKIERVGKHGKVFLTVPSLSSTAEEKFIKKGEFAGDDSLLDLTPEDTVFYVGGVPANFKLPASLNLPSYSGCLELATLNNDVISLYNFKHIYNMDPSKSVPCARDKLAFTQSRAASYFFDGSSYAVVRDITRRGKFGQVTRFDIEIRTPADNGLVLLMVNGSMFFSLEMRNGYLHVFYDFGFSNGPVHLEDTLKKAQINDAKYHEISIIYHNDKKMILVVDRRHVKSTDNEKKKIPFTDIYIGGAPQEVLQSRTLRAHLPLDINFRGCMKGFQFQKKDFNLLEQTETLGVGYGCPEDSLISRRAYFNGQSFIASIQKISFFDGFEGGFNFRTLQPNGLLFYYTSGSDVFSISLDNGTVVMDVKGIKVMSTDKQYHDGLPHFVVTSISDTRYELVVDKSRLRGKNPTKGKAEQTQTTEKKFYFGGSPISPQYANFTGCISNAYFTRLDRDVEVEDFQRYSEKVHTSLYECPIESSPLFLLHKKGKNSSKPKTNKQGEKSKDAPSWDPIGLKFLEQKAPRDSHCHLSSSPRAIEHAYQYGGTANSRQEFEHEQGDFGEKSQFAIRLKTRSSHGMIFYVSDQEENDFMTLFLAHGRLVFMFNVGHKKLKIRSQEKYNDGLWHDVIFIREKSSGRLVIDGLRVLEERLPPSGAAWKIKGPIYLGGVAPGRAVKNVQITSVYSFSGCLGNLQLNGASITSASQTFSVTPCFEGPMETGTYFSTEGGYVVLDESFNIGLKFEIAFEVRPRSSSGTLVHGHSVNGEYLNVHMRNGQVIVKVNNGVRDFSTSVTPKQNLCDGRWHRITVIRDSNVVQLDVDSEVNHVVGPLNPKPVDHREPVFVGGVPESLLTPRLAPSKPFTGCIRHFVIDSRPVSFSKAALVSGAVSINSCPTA
Description: Biacore SPR. Background: SPR reads the build-up and loss of mass on a sensor chip optically.

A further assay has as its target T2, human His-laminin-α4 (human, UniProt Q16363 833-1823, limits assumed).
T2 construct: Bought His-tagged recombinant protein (R & D Systems); also called Human LAMA4; human His-laminin-α4 (R & D Systems)
T2 sequence: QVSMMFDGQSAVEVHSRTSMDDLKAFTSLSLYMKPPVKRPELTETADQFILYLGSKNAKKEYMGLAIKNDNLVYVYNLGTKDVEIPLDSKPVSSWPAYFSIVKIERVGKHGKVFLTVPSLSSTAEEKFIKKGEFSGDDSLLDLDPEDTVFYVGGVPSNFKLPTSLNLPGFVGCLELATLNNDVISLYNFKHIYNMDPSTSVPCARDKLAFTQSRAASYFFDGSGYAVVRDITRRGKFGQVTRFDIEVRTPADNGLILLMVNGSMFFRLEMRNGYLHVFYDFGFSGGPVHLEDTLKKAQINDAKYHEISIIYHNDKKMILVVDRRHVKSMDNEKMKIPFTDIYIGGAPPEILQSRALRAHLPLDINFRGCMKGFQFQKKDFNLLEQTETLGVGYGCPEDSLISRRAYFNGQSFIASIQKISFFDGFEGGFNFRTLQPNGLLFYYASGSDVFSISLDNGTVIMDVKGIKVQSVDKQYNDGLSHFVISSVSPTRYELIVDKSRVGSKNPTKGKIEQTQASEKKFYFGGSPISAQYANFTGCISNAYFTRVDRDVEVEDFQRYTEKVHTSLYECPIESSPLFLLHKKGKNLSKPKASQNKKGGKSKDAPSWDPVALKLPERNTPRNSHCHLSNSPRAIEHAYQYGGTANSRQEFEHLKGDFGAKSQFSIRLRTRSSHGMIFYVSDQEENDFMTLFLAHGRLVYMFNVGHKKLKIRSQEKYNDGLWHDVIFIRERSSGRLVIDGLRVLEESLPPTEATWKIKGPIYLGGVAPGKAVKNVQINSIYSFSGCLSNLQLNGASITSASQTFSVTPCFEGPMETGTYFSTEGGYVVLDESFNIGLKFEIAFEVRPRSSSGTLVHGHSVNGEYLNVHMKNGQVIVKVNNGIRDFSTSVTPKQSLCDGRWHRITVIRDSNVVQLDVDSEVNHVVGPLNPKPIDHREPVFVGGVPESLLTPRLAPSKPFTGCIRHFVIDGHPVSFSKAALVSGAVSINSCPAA
Description: Biacore SPR.

B1: mouse monoclonal antibody 1C1 (antibody, V domains shown)
VH: QVQLQQSGAELARPGASVKLSCKASGYTFTNYGISWVKQRTGQGLEWIGAIYPRSGNTYYNEKFKGKATLTADKSSSTAYMELRSLTSEDSAVYFCARERDYGSSYALDYWGQGTSVTVSS
VL: DIVMTQSQKFMSTSVGDRVSVTCKASHNVGTNVAWYQQKPGQSPKPLIYSASYRYSGVPDRFTGSGSGTDFTLTISNVQSEDLADYFCQQFNNYPYTFGGGTKLEIKR
notes: version 1 is written here
The term Kd denotes the concentration at which binding is half-saturated. The low end stands for higher affinity, the high end for lower affinity. Usually koff stands for the rate constant with which the complex falls apart. Lower therefore signals a long-lived complex. What is called kon is the rate constant with which the complex forms. Higher therefore signals faster complex formation. In the assay with mouse His-laminin-α4, B1 showed a Kd of 16.1 nM, a koff of 0.00947 s⁻¹ and an association rate constant (kon) of 590000 M⁻¹ s⁻¹. In the assay with human His-laminin-α4, this molecule displayed an equilibrium dissociation constant (Kd) of 13.3 nM, a koff of 0.00917 s⁻¹ and a kon of 610000 M⁻¹ s⁻¹.

B2: mouse monoclonal antibody 19C12 (antibody, V domains shown)
VH: QVQLQQSGAELVKPGASVKISCKASGYAFSTYWMNWVKQRPGEGLEWIGQIYPGDGDTNYNGKFKGKATLTADKSSSTAYMQLSSLTSEDSAVYFCARSDGYYDYWGQGTTLTVSS
VL: NIVLTQSPASLAVSLGQRATISCRASESVDSYGTSFMHWYQQKPGQPPKLLICLASSLESGVPARFSGSGSRTDFTLTIDPVEADDAATYYCQQNNEDPPTFGAGTKLELKR
notes: Mouse hybridoma antibody; Mouse IgG2b was used as its isotype control; also called m19C12
As for B2, in the assay with mouse His-laminin-α4, binding was characterised by a dissociation constant (Kd) of 0.965 nM, the off-rate constant (koff) was 0.0061 s⁻¹ and the kon amounted to 6.32e+06 M⁻¹ s⁻¹. For the same molecule, in the assay with human His-laminin-α4, the Kd was found to be 1.27 nM, the off-rate constant (koff) worked out at 0.00858 s⁻¹ and the kon turned out to be 6.72e+06 M⁻¹ s⁻¹.
